# Results reported in publication PMC6476931.
# Target: Human fibrinogen (human) (UniProt P02671)
# Test: ELISA; Fg coated on wells (5 μg/ml, 0.5 μg/well); GST-vWbp or GST-Coa proteins in 1% BSA, 0.05% Tween 20, TBS, 1 h at room temperature; detected with HRP anti-GST; one-site fit, apparent KD, mean of three experiments
# Human fibrinogen (human), sequence (P02671 36-866, chain 1 of 3): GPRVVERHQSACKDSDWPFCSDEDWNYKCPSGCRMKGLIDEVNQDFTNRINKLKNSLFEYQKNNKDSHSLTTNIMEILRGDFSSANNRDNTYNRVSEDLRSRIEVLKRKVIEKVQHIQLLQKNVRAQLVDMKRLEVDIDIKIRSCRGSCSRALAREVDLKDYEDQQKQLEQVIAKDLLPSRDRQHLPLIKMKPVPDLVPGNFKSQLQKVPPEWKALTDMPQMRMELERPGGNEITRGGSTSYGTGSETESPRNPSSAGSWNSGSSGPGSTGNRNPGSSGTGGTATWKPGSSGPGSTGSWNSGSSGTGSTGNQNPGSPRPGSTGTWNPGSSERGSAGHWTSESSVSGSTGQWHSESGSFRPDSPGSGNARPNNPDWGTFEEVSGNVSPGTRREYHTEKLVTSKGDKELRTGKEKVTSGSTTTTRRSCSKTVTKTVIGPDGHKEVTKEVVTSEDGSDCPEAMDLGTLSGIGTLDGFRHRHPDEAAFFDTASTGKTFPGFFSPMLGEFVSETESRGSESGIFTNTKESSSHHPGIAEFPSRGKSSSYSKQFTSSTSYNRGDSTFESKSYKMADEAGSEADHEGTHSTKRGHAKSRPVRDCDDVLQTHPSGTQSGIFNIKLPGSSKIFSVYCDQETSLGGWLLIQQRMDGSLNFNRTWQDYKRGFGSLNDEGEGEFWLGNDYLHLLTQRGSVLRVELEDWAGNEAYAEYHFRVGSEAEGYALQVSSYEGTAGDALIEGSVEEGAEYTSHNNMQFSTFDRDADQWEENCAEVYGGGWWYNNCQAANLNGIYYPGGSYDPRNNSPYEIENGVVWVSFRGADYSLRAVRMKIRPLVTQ
# Human fibrinogen (human), sequence (P02675 45-491, chain 2 of 3, further chain): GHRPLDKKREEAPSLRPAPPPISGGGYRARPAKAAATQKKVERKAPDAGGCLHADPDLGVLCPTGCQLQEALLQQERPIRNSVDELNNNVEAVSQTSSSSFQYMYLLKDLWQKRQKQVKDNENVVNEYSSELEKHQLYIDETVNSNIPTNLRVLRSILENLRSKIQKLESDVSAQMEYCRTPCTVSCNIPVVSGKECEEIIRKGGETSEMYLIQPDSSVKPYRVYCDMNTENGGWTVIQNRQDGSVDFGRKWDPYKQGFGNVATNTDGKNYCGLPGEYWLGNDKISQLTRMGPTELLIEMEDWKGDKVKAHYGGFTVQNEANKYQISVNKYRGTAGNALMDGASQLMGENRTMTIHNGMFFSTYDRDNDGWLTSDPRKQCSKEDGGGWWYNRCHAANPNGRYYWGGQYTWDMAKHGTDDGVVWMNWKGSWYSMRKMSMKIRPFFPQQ
# Human fibrinogen (human), sequence (P02679 27-453, chain 3 of 3, further chain): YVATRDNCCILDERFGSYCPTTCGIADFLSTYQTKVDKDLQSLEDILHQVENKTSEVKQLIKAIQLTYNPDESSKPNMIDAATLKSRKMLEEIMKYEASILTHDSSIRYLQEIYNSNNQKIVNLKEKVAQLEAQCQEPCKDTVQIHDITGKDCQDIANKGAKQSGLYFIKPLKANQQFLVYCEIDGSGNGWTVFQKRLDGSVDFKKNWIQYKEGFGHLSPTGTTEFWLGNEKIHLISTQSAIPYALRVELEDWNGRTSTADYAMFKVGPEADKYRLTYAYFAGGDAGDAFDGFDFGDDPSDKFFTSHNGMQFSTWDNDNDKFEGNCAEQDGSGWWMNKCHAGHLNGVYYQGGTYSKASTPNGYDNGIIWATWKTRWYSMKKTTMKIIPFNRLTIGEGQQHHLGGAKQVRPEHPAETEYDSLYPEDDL
row,Substance,Kd [µM]
1,GST-vWbp-C (C-terminal half of vWbp) (domain or fragment),0.038
2,GST-vWbp-N (N-terminal half of vWbp) (domain or fragment),0.0032
